Source: patent publication US20260027208A1 (published 2026)

T1: KRAS G12D peptide on HLA-A*11:01 (human)
T1 peptide: VVVGADGVGK

B1: TCR79 (TCR, V domains shown)
Valpha: QKEVEQNSGPLSVPEGAIASLNCTYSDRVSQSFFWYRQYSGKSPELIMSIYSNGDKEDGRFTAQLNKASQYVSLLIRDSQPSDSATYLCAVRWAGGTSYGKLTFGQGTILTVHP
Vbeta: DTGVSQDPRHKITKRGQNVTFRCDPISEHNRLYWYRQTLGQGPEFLTYFQNEAQLEKSRLLSDRFSAERPKGSFSTLEIQRTEQGDSAMYLCATPLGRTNEQFFGPGTRLTVL
B2: TCR4 (TCR, V domains shown)
Valpha: QKEVEQDPGPLSVPEGAIVSLNCTYSNSAFQYFMWYRQYSRKGPELLMYTYSSGNKEDGRFTAQVDKSSKYISLFIRDSQPSDSATYLCAMGALNSGAGSYQLTFGKGTKLSVIP
Vbeta: KAGVTQTPRYLIKTRGQQVTLSCSPISGHRSVSWYQQTPGQGLQFLFEYFSETQRNKGNFPGRFSGRQFSNSRSEMNVSTLELGDSALYLCASSLSSGTGTEAFFGQGTRLTVE
B3: TCR80 (TCR, V domains shown)
Valpha: AQTVTQSQPEMSVQEAETVTLSCTYDTSESDYYLFWYKQPPSRQMILVIRQEAYKQQNATENRFSVNFQKAAKSFSLKISDSQLGDAAMYFCASTLSSGDKLTFGTGTRLAVRP
Vbeta: EPEVTQTPSHQVTQMGQEVILRCVPISNHLYFYWYRQILGQKVEFLVSFYNNEISEKSEIFDDQFSVERPDGSNFTLKIRSTKLEDSAMYFCASSGVDRAYGYTFGSGTRLTVV
B4: TCR69 (TCR, V domains shown)
Valpha: TQLLEQSPQFLSIQEGENLTVYCNSSSVFSSLQWYRQEPGEGPVLLVTVVTGGEVKKLKRLTFQFGDARKDSSLHITAAQPGDTGLYLCAGKTTDSWGKLQFGAGTQVVVTP
Vbeta: EPEVTQTPSHQVTQMGQEVILRCVPISNHLYFYWYRQILGQKVEFLVSFYNNEISEKSEIFDDQFSVERPDGSNFTLKIRSTKLEDSAMYFCASSEWAGTEAFFGQGTRLTVV
B5: TCR5 (TCR, V domains shown)
Valpha: GEDVEQSLFLSVREGDSSVINCTYTDSSSTYLYWYKQEPGAGLQLLTYIFSNMDMKQDQRLTVLLNKKDKHLSLRIADTQTGDSAIYFCAERDAGNNRKLIWGLGTSLAVNP
Vbeta: GAGVSQSPRYKVAKRGQDVALRCDPISGHVSLFWYQQALGQGPEFLTYFQNEAQLDKSGLPSDRFFAERPEGSVSTLKIQRTQQEDSAVYLCASSLEGGDTQYFGPGTRLTVL
B6: TCR91 (TCR, V domains shown)
Valpha: AQKVTQAQTEISVVEKEDVTLDCVYETRDTTYYLFWYKQPPSGELVFLIRRNSFDEQNEISGRYSWNFQKSTSSFNFTITASQVVDSAVYFCALNEGGGSTLGRLYFGRGTQLTVWP
Vbeta: DAMVIQNPRYQVTQFGKPVTLSCSQTLNHNVMYWYQQKSSQAPKLLFHYYDKDFNNEADTPDNFQSRRPNTSFCFLDIRSPGLGDAAMYLCATSTGRVYQPQHFGDGTRLSIL
B7: TCR2 (TCR, V domains shown)
Valpha: AQTVTQSQPEMSVQEAETVTLSCTYDTSENNYYLFWYKQPPSRQMILVIRQEAYKQQNATENRFSVNFQKAAKSFSLKISDSQLGDTAMYFCAFMYPSQGGSEKLVFGKGMKLTVNP
Vbeta: ETGVTQSPTHLIKTRGQQVTLRCSSQSGHNTVSWYQQALGQGPQFIFQYYREEENGRGNFPPRFSGLQFPNYSSELNVNALELDDSALYLCASSSPGFRSYGYTFGSGTRLTVV
B8: TCR32 (TCR, V domains shown)
Valpha: AQTVTQSQPEMSVQEAETVTLSCTYDTSENNYYLFWYKQPPSRQMILVIRQEAYKQQNATENRFSVNFQKAAKSFSLKISDSQLGDTAMYFCAFMTPITQGGSEKLVFGKGTKLTVNP
Vbeta: ETGVTQSPTHLIKTRGQQVTLRCSSQSGHNTVSWYQQALGQGPQFIFQYYREEENGRGNFPPRFSGLQFPNYSSELNVNALELDDSALYLCASSDRGWNEQFFGPGTRLTVL
B9: TCR81 (TCR, V domains shown)
Valpha: AQTVTQSQPEMSVQEAETVTLSCTYDTSESDYYLFWYKQPPSRQMILVIRQEAYKQQNATENRFSVNFQKAAKSFSLKISDSQLGDAAMYFCAYCNPNAGKSTFGDGTTLTVKP
Vbeta: DVKVTQSSRYLVKRTGEKVFLECVQDMDHENMFWYRQDPGLGLRLIYFSYDVKMKEKGDIPEGYSVSREKKERFSLILESASTNQTSMYLCASSFRLREGLGEQFFGPGTRLTVL

Tests used:
[1] = molecular target: T1, KRAS G12D peptide on HLA-A*11:01; assay: activation reporter or marker
[2] = molecular target: T1, KRAS G12D peptide on HLA-A*11:01; assay: CD137 by flow cytometry; transduced primary CD4+ and CD8+ T cells, TRAC/TRBC double knockout; G12D peptide titrated (FIG. 3C); full-length, on cells
Procedure: (§1) Primary CD4+ and CD8+ T cells were transduced with a KRAS-G12D-specific T cell receptor (TCR69, TCR79, TCR80, TCR81, or TCR91), and were either edited to knockout TRAC and TRBC or left with unmodified TRAC and TRBC genes, and expanded for several days. Engineered T cells were incubated with G12D peptide at decreasing concentrations and T cell responses were assessed by measuring CD137 expression.
(§2) In additional experiments, the effect of TRAC and TRBC knockout was evaluated for primary CD4+ and CD8+ T cells transduced with further KRAS-G12D-specific TCRs. The double knockout improved TCR avidity for multiple TCRs as shown in FIG. 3C (corresponding EC50 values in TABLE 2 and Cmax values in TABLE 3), FIG. 3D (corresponding EC50 values in TABLE 4), and FIG. 3E (corresponding EC50 values in TABLE 5).

[3] = molecular target: T1, KRAS G12D peptide on HLA-A*11:01; assay: CD137 by flow cytometry; transduced primary CD4+ and CD8+ T cells, TRAC/TRBC wild type; G12D peptide titrated (FIG. 3D); full-length, on cells
Procedure: as §1, §2

[4] = molecular target: T1, KRAS G12D peptide on HLA-A*11:01; assay: CD137 by flow cytometry; transduced primary CD4+ and CD8+ T cells, TRAC/TRBC wild type; G12D peptide titrated (FIG. 3E); full-length, on cells
Procedure: as §1, §2

[5] = molecular target: T1, KRAS G12D peptide on HLA-A*11:01; assay: CD137 by flow cytometry; transduced primary CD4+ and CD8+ T cells without knockout of TRAC and TRBC; G12D peptide titrated (FIG. 3C); full-length, on cells
Procedure: as §1, §2

[6] = molecular target: T1, KRAS G12D peptide on HLA-A*11:01; assay: CD137 by flow cytometry; transduced primary CD4+ and CD8+ T cells, TRAC/TRBC wild type; G12D peptide titrated (FIG. 3C); full-length, on cells
Procedure: as §1, §2

[7] = molecular target: T1, KRAS G12D peptide on HLA-A*11:01; assay: CD137 by flow cytometry; transduced primary CD4+ and CD8+ T cells, TRAC/TRBC double knockout; G12D peptide titrated (FIG. 3D); full-length, on cells
Procedure: as §1, §2

[8] = molecular target: T1, KRAS G12D peptide on HLA-A*11:01; assay: CD137 by flow cytometry; transduced primary CD4+ and CD8+ T cells, TRAC/TRBC double knockout; G12D peptide titrated (FIG. 3E); full-length, on cells
Procedure: as §1, §2

[9] = molecular target: T1, KRAS G12D peptide on HLA-A*11:01; assay: killing
Procedure: Red fluorescent Hpaf-II cells, a KRAS-G12D expressing tumor cell line transduced to express HLA-A11, were cocultured at 3:1 effector:target cell ratio with TCR32-transduced CD8⁺ T cells having wild type TRAC and TRBC loci or TCR32-transduced TRAC/TRBC double knockout (dKO) CD8⁺ T cells. Total red object integrated intensity (a measure of tumor cell volume) was evaluated over time. Red fluorescence was measured by live cell imaging using a life cell analysis system, the IncuCyte S3 microscope and software package. CD8⁺ T cell cytotoxicity is indicated by a decrease in the total red target cell area per well as compared to no treatment wells. Additional tumor cells were added at 72 and 140 hours to assess TCR-mediated tumor cell lysis by transduced T cells in the presence of persistent antigen. Reductions in tumor cells were observed when co-cultured with TCR-transduced cells (FIG. 2).

| Binder | binding result [1] | EC50 of peptide [2] [nM] | EC50 of peptide [3] [nM] | EC50 of peptide [4] [nM] | Cmax [5] [%] | EC50 of peptide [6] [nM] | EC50 of peptide [7] [nM] | EC50 of peptide [8] [nM] | binding result [9] |
| --- | --- | --- | --- | --- | --- | --- | --- | --- | --- |
| B1 | recognises |  |  |  |  |  |  |  |  |
| B2 |  | 11.8 | 31.1 | 49.8 | 16 | 49.8 | 4.4 | 11.8 |  |
| B3 | recognises |  |  |  |  |  |  |  |  |
| B4 | recognises |  |  |  |  |  |  |  |  |
| B5 |  | 7.6 | 37.8 | 36.3 | 23.9 | 36.3 | 9.4 | 7.6 |  |
| B6 |  | 36.5 | 179 | 131 | 14.4 | 131 | 14.4 | 36.5 |  |
| B7 |  | 10.1 | 22.2 | 31.6 | 42.7 | 31.6 | 7.3 | 10.1 |  |
| B8 |  |  |  |  |  |  |  |  | recognises |
| B9 | recognises |  |  |  |  |  |  |  |  |
